Data from PMC10651130.

Target: RapR-LIMK1-Flag (LIMK1 T508D with iFKBP inserted in place of E360, flanked by GPG linkers) (UniProt P53667)
Experiment: co-IP

normalized binding to TrkB (500 nM rapamycin): 98.6%
Substance: TrkB-EGFP (tropomyosin receptor kinase B, EGFP-tagged) (from UniProt Q16620 32-822)
